These are literature values, as cited in US20200069786A1, “COMPOSITION AND PROCESS FOR PREPARING VACCINE” (TREOS BIO ZRT., priority 2018, published 2020).

Like-named read-outs stand apart in the source and are kept apart here.

The subject of this data set is TSA.
Where [1] appears, read: TSA expression rate in GASTRIC cancer.
Where [2] appears, read: TSA expression rate in LUNG cancer.
Setting [3] is: TSA expression rate in BLADDER cancer.
The mark [4] stands for this setting: TSA expression rate in LEUKEMIAS
The mark [5] stands for this setting: TSA expression rate in MELANOMA
The mark [6] stands for this setting: TSA expression rate in PROSTATE cancer.
[7] abbreviates: TSA expression rate in Esophageal.
Where [8] appears, read: TSA expression rate in HEAD and NECK.
[9] abbreviates: TSA expression rate in PEDIATRIC

B1: IGFS11 (protein, UniProt Q5DX21 23-431, looked up)
Immunoglobulin superfamily …: LEVSESPGSIQVARGQPAVLPCTFTTSAALINLNVIWMVTPLSNANQPEQVILYQGGQMFDGAPRFHGRVGFTGTMPATNVSIFINNTQLSDTGTYQCLVNNLPDIGGRNIGVTGLTVLVPPSAPHCQIQGSQDIGSDVILLCSSEEGIPRPTYLWEKLDNTLKLPPTATQDQVQGTVTIRNISALSSGLYQCVASNAIGTSTCLLDLQVISPQPRNIGLIAGAIGTGAVIIIFCIALILGAFFYWRSKNKEEEEEEIPNEIREDDLPPKCSSAKAFHTEISSSDNNTLTSSNAYNSRYWSNNPKVHRNTESVSHFSDLGQSFSFHSGNANIPSIYANGTHLVPGQHKTLVVTANRGSSPQVMSRSNGSVSRKPRPPHTHSYTISHATLERIGAVPVMVPAQSRAGSLV
Take B1: for the setting “HCC”, the “TSA Expression Rate (ER)” value is reported as 60%. For the same molecule, the “Expression Rate (ER) %” value under setting [1] is on record as 88%.

B2: CAGE1 (protein, UniProt Q8TC20 1-777, looked up)
Cancer-associated gene 1 …: MNKDYQKFWSSPSDPVHFEVDTSHEKVESMSESDTMNVSNLSQGVMLSHSPICMETTGTTCDLPQNEIKNFERENEYESTLCEDAYGTLDNLLNDNNIENYSTNALIQPVDTISISSLRQFETVCKFHWVEAFDDEMTEKPEFQSQVYNYAKDNNIKQDSFKEENPMETSVSANTDQLGNEYFRQPPPRSPPLIHCSGEMLKFTEKSLAKSIAKESALNPSQPPSFLCKTAVPSKEIQNYGEIPEMSVSYEKEVTAEGVERPEIVSTWSSAGISWRSEACRENCEMPDWEQSAESLQPVQEDMALNEVLQKLKHTNRKQEVRIQELQCSNLYLEKRVKELQMKITKQQVFIDVINKLKENVEELIEDKYKIILEKNDTKKTLQNLEEVLANTQKHLQESRNDKEMLQLQFKKIKANYVCLQERYMTEMQQKNKSVSQYLEMDKTLSKKEEEVERLQQLKKELEKATASALDLLKREKEAQEQEFLSLQEEFQKLEKENLEERQKLKSRLEKLLTQVRNLQFMSENERTKNIKLQQQINEVKNENAKLKQQVARSEEQNYVPKFETAQLKDQLEEVLKSDITKDTKTTHSNLLPDCSPCEERLNPADIKRASQLASKMHSLLALMVGLLTCQDIINSDAEHFKESEKVSDIMLQKLKSLHLKKKTLDKEVIDCDSDEAKSIRDVPTLLGAKLDKYHSLNEELDFLVTSYEEIIECADQRLAISHSQIAHLEERNKHLEDLIRKPREKARKPRSKSLENHPKSMTMMPALFKENRNDLD
As to B2, the “TSA Expression Rate (ER)” value (HCC) is 39%. Also, the “Expression Rate (ER) %” value runs as follows: (TSA expression rate in CRC) 74%; (TSA expression rate in Cervical cancer) 98%; under setting [1], 77%; under setting [2], 14%.

B3: MAGE-B1 (protein, UniProt P43366 1-347, looked up)
Melanoma-associated antigen B1: MPRGQKSKLRAREKRRKAREETQGLKVAHATAAEKEECPSSSPVLGDTPTSSPAAGIPQKPQGAPPTTTAAAAVSCTESDEGAKCQGEENASFSQATTSTESSVKDPVAWEAGMLMHFILRKYKMREPIMKADMLKVVDEKYKDHFTEILNGASRRLELVFGLDLKEDNPSGHTYTLVSKLNLTNDGNLSNDWDFPRNGLLMPLLGVIFLKGNSATEEEIWKFMNVLGAYDGEEHLIYGEPRKFITQDLVQEKYLKYEQVPNSDPPRYQFLWGPRAYAETTKMKVLEFLAKMNGATPRDFPSHYEEALRDEEERAQVRSSVRARRRTTATTFRARSRAPFSRSSHPM
Consider B3, for which the “TSA Expression Rate (ER)” value was 0% (BRAIN) and 47% (HCC). The “Expression Rate (ER) %” value by setting is: under setting [3], 0%; (TSA expression rate in CRC) 0%; (TSA expression rate in Kidney) 0%; under setting [4], 5%; under setting [2], 13%; under setting [5], 19%. Further, under setting [6], the “Expression Rate (ER) %” value was 0%.

B4: MAGE-A12 (protein, UniProt P43365 1-314, looked up)
Melanoma-associated antigen 12: MPLEQRSQHCKPEEGLEAQGEALGLVGAQAPATEEQETASSSSTLVEVTLREVPAAESPSPPHSPQGASTLPTTINYTLWSQSDEGSSNEEQEGPSTFPDLETSFQVALSRKMAELVHFLLLKYRAREPFTKAEMLGSVIRNFQDFFPVIFSKASEYLQLVFGIEVVEVVRIGHLYILVTCLGLSYDGLLGDNQIVPKTGLLIIVLAIIAKEGDCAPEEKIWEELSVLEASDGREDSVFAHPRKLLTQDLVQENYLEYRQVPGSDPACYEFLWGPRALVETSYVKVLHHLLKISGGPHISYPPLHEWAFREGEE
For B4, the “TSA Expression Rate (ER)” value is 12% (BREAST), 36% (HCC) and 31% (LUNG). Also, the “Expression Rate (ER) %” value reads like this: under setting [3], 29%; (TSA expression rate in CRC) 6%; under setting [7], 26%; under setting [8], 34%; (TSA expression rate in Kidney) 4%; under setting [4], 21%. The “Expression Rate (ER) %” value under setting [5] is 49%, the “Expression Rate (ER) %” value under setting [9] is 41% and the “Expression Rate (ER) %” value under setting [6] is reported as 5%.

B5: FATE1 (protein, UniProt Q969F0 1-183, looked up)
Fetal and adult …: MAGGPPNTKAEMEMSLAEELNHGRQGENQEHLVIAEMMELGSRSRGASQKKQKLEQKAAGSASAKRVWNMTATRPKKMGSQLPKPRMLRESGHGDAHLQEYAGNFQGIRFHYDRNPGTDAVAQTSLEEFNVLEMEVMRRQLYAVNRRLRALEEQGATWRHRETLIIAVLVSASIANLWLWMNQ
Regarding B5, under “HCC”, the “TSA Expression Rate (ER)” value is on record as 49%. The “Expression Rate (ER) %” value is, setting by setting: (TSA expression rate in CRC) 21%; under setting [1], 2%; under setting [2], 0%.

B6: TEKT5 (protein, UniProt Q96M29 1-485, looked up)
Tektin-5: MEFLGTTQTASYCGPKKCCGLTSLPAVQAPVIQECYQPYYLPGYRYLNSWRPSLFYKIANVQTCPDESTSTLRPPTILPTLRSALFSRYSPHDWDQSNQLQVRGAEASRLWASRLTDDSMRLLQDKDQLTHQMQEGTCRNLGQRLSDIGFWKSELSYELDRLLTENQNLETVKRRLECAANEVNCPLQVALECLYHREKRIGIDLVHDNVEKNLIREVDLLKCCQEQMRKLAQRIDIQMRDNRDAQHVLERDLEDKSSAQCIDEKCFNLRNTSDCISFFHGMEKIDGTISVPETWAKFSNDNIKHSQNMRANSIQLREEAEHLFETLSDQMWRQFTDTNLAFNARISEVTDVKNKLQTQLAKTLQEIFQAENTIMLLERSIMAKEGPLKVAQTRLECRTRRPNMELCRDIPQLKLVNEVFTIDDTLQTLKLRLRETQDTLQLLVMTKCRLEHELAIKANTLCIDKEKCMGMRKTFPCTPRLVGHT
B6: the “TSA Expression Rate (ER)” value (HCC) is 60%. Further, the “Expression Rate (ER) %” value is on record as 50% (TSA expression rate in CRC); 40% under setting [1]; 0% under setting [8]; 10% under setting [2]; 11% under setting [6].

B7: ACRBP (protein, UniProt Q8NEB7 26-543, looked up)
Acrosin-binding protein: QDSTQASTPGSPLSPTEYERFFALLTPTWKAETTCRLRATHGCRNPTLVQLDQYENHGLVPDGAVCSNLPYASWFESFCQFTHYRCSNHVYYAKRVLCSQPVSILSPNTLKEIEASAEVSPTTMTSPISPHFTVTERQTFQPWPERLSNNVEELLQSSLSLGGQEQAPEHKQEQGVEHRQEPTQEHKQEEGQKQEEQEEEQEEEGKQEEGQGTKEGREAVSQLQTDSEPKFHSESLSSNPSSFAPRVREVESTPMIMENIQELIRSAQEIDEMNEIYDENSYWRNQNPGSLLQLPHTEALLVLCYSIVENTCIITPTAKAWKYMEEEILGFGKSVCDSLGRRHMSTCALCDFCSLKLEQCHSEASLQRQQCDTSHKTPFVSPLLASQSLSIGNQVGSPESGRFYGLDLYGGLHMDFWCARLATKGCEDVRVSGWLQTEFLSFQDGDFPTKICDTDYIQYPNYCSFKSQQCLMRNRNRKVSRMRCLQNETYSALSPGKSEDVVLRWSQEFSTLTLGQFG
In the case of B7, the “TSA Expression Rate (ER)” value is given as 40% (BREAST), 70% (HCC), 20% (LUNG) and 65% (OVARIAN). Besides, the “Expression Rate (ER) %” value by setting is: under setting [3], 28%; (TSA expression rate in CRC) 63%; under setting [1], 0%; (TSA expression rate in Kidney) 0%; under setting [6], 4%.

B8: MAGE-A8 (protein, UniProt P43361 1-318, looked up)
Melanoma-associated antigen 8: MLLGQKSQRYKAEEGLQAQGEAPGLMDVQIPTAEEQKAASSSSTLIMGTLEEVTDSGSPSPPQSPEGASSSLTVTDSTLWSQSDEGSSSNEEEGPSTSPDPAHLESLFREALDEKVAELVRFLLRKYQIKEPVTKAEMLESVIKNYKNHFPDIFSKASECMQVIFGIDVKEVDPAGHSYILVTCLGLSYDGLLGDDQSTPKTGLLIIVLGMILMEGSRAPEEAIWEALSVMGLYDGREHSVYWKLRKLLTQEWVQENYLEYRQAPGSDPVRYEFLWGPRALAETSYVKVLEHVVRVNARVRISYPSLHEEALGEEKGV
For B8, where the note is “HCC”, the “TSA Expression Rate (ER)” value is listed as 45%. In addition, the “Expression Rate (ER) %” value reads like this: under setting [3], 57%; (TSA expression rate in CRC) 44%; under setting [5], 10%.

B9: MAGE-A6 (protein, UniProt P43360 1-314, looked up)
Melanoma-associated antigen 6: MPLEQRSQHCKPEEGLEARGEALGLVGAQAPATEEQEAASSSSTLVEVTLGEVPAAESPDPPQSPQGASSLPTTMNYPLWSQSYEDSSNQEEEGPSTFPDLESEFQAALSRKVAKLVHFLLLKYRAREPVTKAEMLGSVVGNWQYFFPVIFSKASDSLQLVFGIELMEVDPIGHVYIFATCLGLSYDGLLGDNQIMPKTGFLIIILAIIAKEGDCAPEEKIWEELSVLEVFEGREDSIFGDPKKLLTQYFVQENYLEYRQVPGSDPACYEFLWGPRALIETSYVKVLHHMVKISGGPRISYPLLHEWALREGEE
Regarding B9, the “TSA Expression Rate (ER)” value is given as 15% (BREAST), 36% (HCC) and 51% (LUNG). For the same molecule, the “Expression Rate (ER) %” value by setting is: under setting [3], 25%; (TSA expression rate in CRC) 22%; under setting [7], 68%; under setting [8], 58%; (TSA expression rate in Kidney) 0%; under setting [5], 65%. Further, the “Expression Rate (ER) %” value was 80% under setting [9] and 23% under setting [6].

B10: WBP2NL (protein, UniProt Q6ICG8 1-309, looked up)
Postacrosomal sheath WW …: MAVNQSHTENRRGALIPNGESLLKRSPNVELSFPQRSEGSNVFSGRKTGTLFLTSYRVIFITSCSISDPMLSFMMPFDLMTNLTVEQPVFAANFIKGTIQAAPYGGWEGQATFKLVFRNGDAIEFAQLMVKAASAAARGFPLRTLNDWFSSMGIYVITGEGNMCTPQMPCSVIVYGAPPAGYGAPPPGYGAPPAGYGAQPVGNEGPPVGYRASPVRYGAPPLGYGAPPAGYGAPPLGYGAPPLGYGTPPLGYGAPPLGYGAPPAGNEGPPAGYRASPAGSGARPQESTAAQAPENEASLPSASSSQVHS
As to B10, the “TSA Expression Rate (ER)” value (BREAST) was 50%.
